{
  "source": "patent US8728787B2",
  "about": "“Fungal laccases and uses thereof” (Academia Sinica, priority 2010, dated 2014)",
  "molecules": {"B1": {"name": "Lcc3: laccase purified from Cerrena sp. WR1, GenBank accession no. GQ899203; SEQ ID NO:3 mature, 9 precursor (protein)", "chain": "AIGPVADLHITDANVSPDGFTRPAVLAGGTFPGPLITGKQGDNFQINVIDELTDATMLKSTSIHWHGIFQKGTNWADGPSFVNQCPITTGNSFLYDFSVPDQTGTYWYHSHLSTQYCDGLRGALVIYDDNDPHKDLYDVDDETTVITLADWYHTQARLITGVPVSDATLINGLGRYLNGPTDAPLAVITVDQGKRYRFRLVSISCDPNFVFSIDNHSMTVIEVDAVNSQPLVVDSIQIFAAQRYSFILNANQSVGNYWIRANPNLGNTGFTNGINSAILRYNGAPVAEPNTTQTASTNPLNEVNLHPLVPTPVPGTPQPGGVDVVQNLVLGFSGGKFTINGVAFSPPTVPVLLQILSGTTTAQDLLPTGSIIELPLGKTVELTLAAGVLGGPHPFHLHGHTFHVVRSAGQTTPNYVDPILRDTVNTGAAGDNVTIRFTTDNPGPWFLHCHIDWHLEAGFAVVFAEGLNQTNAANPTPDAWNNLCDLYNALPAGDQ", "modifications": "Cerrena sp"}},
  "key": {"[1]": {"assay": "Thermal denaturation by differential scanning calorimetry (DSC)", "assay_type": "physicochemical", "conditions": "10 mM sodium phosphate buffer (pH 6.0)", "method": "Thermal denaturation of laccase was determined by differential scanning calorimetry (DSC) using a Nano Differential Scanning calorimeter (N-DSC III) (TA Instruments, New Castle, Del.) at a heating rate of 1° C./min under a temperature from 30 to 95° C. and excess pressure of 3.0 atm. The protein concentration was 0.55 mg/ml in 10 mM sodium phosphate buffer (pH 6.0). Baseline corrections were performed and smoothed by subtracting a buffer thermogram. The data were then analyzed using the Launch NanoAnalyze Software (TA Instruments, New Castle, Del.), assuming a two-state unfolding model. See Pace et al., The Protein Structure: A Practical Approach; Creighton T. E., Ed.: IRL Press; Oxford U.K., pp. 311-330; 1989."}, "RBBR dye decoloration": {"assay": "RBBR dye decoloration", "conditions": "0.02% RBBR, 8 U enzyme, 20° C., 1 h, pH 3.0", "method": "Dye decoloration reaction was performed by mixing a partially purified laccase broth (containing 8 U enzyme) with a 1 ml reaction buffer (50 mM citric acid solution; pH 3.0) containing 0.02% RBBR (Sigma). The mixture was incubated at 20° C. for 1 h. Dye decoloration was determined by monitoring the change in absorbance at 595 nm and the dye decoloration efficiency (%) was defined as the relative amount of dye reduced after the treatment.\nThe lignin degradation reaction and the dye decoloration reaction were carried out following the methods described in Example 1 above. […] See FIG. 9, pane A. The lignin degradation efficiencies were 22%-25% at 40-50° C. for 40 min and 32% at 40° C. for 60 min."}, "[2]": {"assay": "Laccase activity in culture media of recombinant P. pastoris", "assay_type": "biochemical", "conditions": "expressed in P. pastoris X-33; 13-26 day (Lcc1-3) or 18-day (LccA) cultivation", "excerpt": "The EasySelect™ Pichia Expression System (Invitrogen) was used in this study for expression of Lcc1, Lcc2, and Lcc3 laccases. cDNA fragments coding for these three laccases were cloned into Pichia expression vector pPICZA or pPICZaB via EcoRI and NotI restriction sites. More specifically, the lcc1 gene coding for Lcc1 precursor (including a signal peptide sequence) was cloned into pPICA to generate expression plasmid pPICZA-lcc1 and the lcc2 and lcc3 genes coding for mature Lcc2 and Lcc3 were cloned into pPICZaB to obtain expression plasmids pPICZaB-lcc2 and pPICZaB-lcc3, respectively. The three expression plasmids were introduced into P. pastoris X-33 cells following the method described in Invitrogen's protocol. Positive transformants were cultured in BMMY (1% yeast extract, 2% peptone, 100 mM potassium phosphate, pH 6.0, 1.34% yeast nitrogen base, 0.00004% biotin, and 0.5% methanol) at 25° C., 200 rpm for 12-26 days. Methanol was added to the culture media daily to reach a final concentration of 0.5%. During the cultivation, 1 ml of the supernatant was collected at various time points. The laccase activity and cell density in the supernatant were determined following the method described above or routine procedures.\npPICZ-lccA was introduced into Pichia pastoris strain X-33 host cells (Invitrogen) and positive transformants were selected for LccA expression. Briefly, a positive transformant was cultured in BMMY medium containing 1% yeast extract, 2% peptone, 1.34% yeast nitrogen base, 0.00004% biotin, and 0.5% methanol at 25° C. and 200 rpm for 20 days. Methanol was daily added to reach a final concentration of 0.5%. Within the 20-day cultivation, 1 ml of the supernatant was collected; laccase activity and cell growth were determined."}, "[3]": {"assay": "Guaiacol oxidation (laccase kinetics, optimum temperature and pH)", "assay_type": "biochemical", "conditions": "guaiacol as substrate", "method": "The effect of temperature on laccase activity was studied using the standard enzymatic activity assay described above under various reaction temperatures (i.e., 20-80° C.). For thermal stability study, the enzyme was pre-incubated in a 50 mM citric acid buffer (pH 3.0) at 50-80° C. for 0-180 min and the residual enzymatic activity was then determined.\nThe effect of pH on the laccase activity was investigated at a pH range of 2.5-6.0. Four buffer systems were used in this study: 50 mM glycine-HCl buffer (pH 2.5), 50 mM citric acid buffer (pH 3.0-5.5), 50 mM sodium phosphate buffer (pH 6.0-8.0), and 50 mM glycine-NaOH buffer (pH 9.0-10). To determine the protein stability of laccase at a wide range of pH conditions, the enzyme (0.1 mg/mL in each reaction) was pre-incubated at pH 3.0-10 at 25° C. for 0-5 days and then the residual enzyme activity was determined.\nKinetic parameters Km and Vmax were determined as follows. […] The oxidation reactions of guaiacol and 2,6-DMP were monitored by determining OD436 values (ε=6,400 M^−1cm^−1) and OD468 values (ε=49,600 M^−1 cm^−1), respectively. The kinetic parameters were determined by nonlinear regression analysis (ENZFITTER software program, Elsevier-Biosoft, Cambridge, UK) using the Michaelis-Menten model.\nTo determine the effect of temperature on the enzyme activity, a standard enzymatic activity assay was performed under various temperatures (i.e., 30-90° C.). For thermal stability study, laccase was pre-incubated in a 50 mM citric acid buffer (pH 3.0) at 30-80° C. for 10-40 min and the residual enzymatic activity was then determined by the standard assay. See Example 1 above. Values of t1/2 were determined accordingly.\nThe effect of pH on laccase activity was investigated at pH 2.0-6.0, using a glycine-HCl buffer (pH 2.0-2.5) or a citric acid buffer (pH 2.5-6.0). To determine protein stability in different pH conditions, the enzyme was pre-incubated at pH 2.5-4.5 at 25° C. for 0-2 h and the residual enzyme activity was determined by the standard enzymatic assay.\nKinetic parameters were determined following conventional methods. See also Example 1 above."}, "[4]": {"assay": "Effect of organic solvents on laccase activity", "assay_type": "biochemical", "conditions": "ABTS", "method": "To test the effects of various organic solvents on laccase activity, the enzymatic assay described above was carried out in the presence of one of the organic solvents shown in Table 1 below at various concentrations (1%, 10% and 25%). A T. versicolor (Fluka) laccase was used as a reference enzyme in this study. The enzyme concentration used in this study was 0.2 mg/ml. […] Further, more than 80% laccase activity remained in the presence of 10% acetonitrile or dimethyl sulfoxide. […]"}},
  "data": [
    {"molecule": "B1", "values": [
      {"measurement": "midpoint temperature (Tm)", "setting": "[1]", "value": 73.95, "unit": "°C"},
      {"measurement": "decoloration efficiency against RBBR", "setting": "RBBR dye decoloration", "value": 70.1, "unit": "%"},
      {"measurement": "laccase activity in culture media", "setting": "[2]", "value": "~3700", "unit": "U/L"},
      {"measurement": "optimal temperature", "setting": "[3]", "value": 70, "unit": "°C"},
      {"measurement": "pH of maximal activity", "setting": "[3]", "value": 4.5},
      {"measurement": "Optimum temperature", "setting": "[3]; at pH 4.5", "value": "70 (at pH 4.5) ° C."},
      {"measurement": "Specific activity", "setting": "[3]; optimum temperature and pH", "value": 189.7, "unit": "U/mg"},
      {"measurement": "Relative activity", "setting": "[4]; Acetonitrile 1%, pH 3.0, 30° C.", "value": "92.7 ± 2.5", "unit": "%"},
      {"measurement": "Relative activity", "setting": "[4]; Acetonitrile 25%, pH 3.0, 30° C.", "value": "77.5 ± 3.2", "unit": "%"},
      {"measurement": "Relative activity", "setting": "[4]; Dimethyl sulfoxide 1%, pH 3.0, 30° C.", "value": "93.5 ± 1.4", "unit": "%"},
      {"measurement": "Relative activity", "setting": "[4]; Dimethyl sulfoxide 25%, pH 3.0, 30° C.", "value": "55.8 ± 1.7", "unit": "%"},
      {"measurement": "Relative activity", "setting": "[4]; Ethanol 1%, pH 3.0, 30° C.", "value": "94.5 ± 1.8", "unit": "%"},
      {"measurement": "Relative activity", "setting": "[4]; Ethanol 10%, pH 3.0, 30° C.", "value": "93.9 ± 4.0", "unit": "%"},
      {"measurement": "Relative activity", "setting": "[4]; Ethanol 25%, pH 3.0, 30° C.", "value": "84.8 ± 3.3", "unit": "%"},
      {"measurement": "Relative activity", "setting": "[4]; Methanol 1%, 50 mM citric acid buffer pH 3.0, 30° C.", "value": "93.0 ± 1.5", "unit": "%"},
      {"measurement": "Relative activity", "setting": "[4]; Methanol 10%, pH 3.0, 30° C.", "value": "85.5 ± 0.9", "unit": "%"},
      {"measurement": "Relative activity", "setting": "[4]; N,N-dimethylformamide 1%, pH 3.0, 30° C.", "value": "100 ± 0.9", "unit": "%"},
      {"measurement": "Relative activity", "setting": "[4]; N,N-dimethylformamide 10%, pH 3.0, 30° C.", "value": "98.4 ± 0.5", "unit": "%"}
    ]}
  ]
}
